Laboratory results from patent US20130101595A1.

Columns and labels:
[1] = molecular target: recombinant human IL-18 (rhIL-18) (human) (UniProt Q14116); experiment: SPR (BIAcore), biotinylated rhIL-18 on streptavidin chip, antibody in solution
[2] = molecular target: recombinant human IL-18 (rhIL-18) (human) (UniProt Q14116); experiment: cell-based or functional assay

Kd [1]: 0.62 nM
koff [1]: 0.00011 s⁻¹
kon [1]: 170000 M⁻¹ s⁻¹
IC50 Value, KG-1 cell-based IL-18 neutralization assay (hIFN-gamma) [2]: 200 pM
B1: 125-2H (antibody, from another filing, V domains shown)
VH: EIQLQQSGPELVKPGASVKVSCKASGYSFTDYFIYWVKQSHGKSLEWIGDIDPYNGDTSYNQKFRDKATLTVDQSSTTAFMHLNSLTSEDSAVYFCARGLRFWGQGTLVTVSA
VL: DIQMTQSPSSLSASLGERVSLTCRASQDIGSKLYWLQQEPDGTFKRLIYATSSLDSGVPKRFSGSRSGSDYSLTISSLESEDFVDYYCLQYASSPYTFGGGTKLAIKR
